The source of these data is article PMC9318713, “Exploring the Utility of ssDNA Aptamers Directed against Snake Venom Toxins as New Therapeutics for Snakebite Envenoming”.

In data set [1] the target is T1, ancrod (recombinant SVSP) (Calloselasma rhodostoma? (printed C. …, UniProt P26324 1-234)).
T1 sequence: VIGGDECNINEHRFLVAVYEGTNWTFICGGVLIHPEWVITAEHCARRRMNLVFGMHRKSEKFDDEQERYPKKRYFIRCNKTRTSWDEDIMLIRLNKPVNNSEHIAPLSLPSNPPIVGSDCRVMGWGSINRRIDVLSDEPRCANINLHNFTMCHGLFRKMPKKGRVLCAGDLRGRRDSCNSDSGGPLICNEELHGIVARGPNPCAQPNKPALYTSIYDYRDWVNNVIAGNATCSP
As to the kind of experiment: fluorescence bead binding assay; 2 mM Mg2+; Kd only in figure, within 3.0-17.8 nM; Kd: 50 mM Tris-HCl pH 7.5, 150 mM NaCl, 2 mM MgCl2, RT, 1 h, toxin on Sepharose beads; ALISA: 100 ng toxin coated, aptamer in nuclease-free water, RT, 2 h, PBST. The note with it: protein: recombinant; label: 6-FAM.

Data set [2] deals with T2, batroxobin (recombinant SVSP) (Bothrops atrox? (printed B. atrox), UniProt P04971 25-255). As to the kind of experiment: fluorescence bead binding assay. The note with it: protein: recombinant; label: 6-FAM.
T2 sequence (P04971 25-255): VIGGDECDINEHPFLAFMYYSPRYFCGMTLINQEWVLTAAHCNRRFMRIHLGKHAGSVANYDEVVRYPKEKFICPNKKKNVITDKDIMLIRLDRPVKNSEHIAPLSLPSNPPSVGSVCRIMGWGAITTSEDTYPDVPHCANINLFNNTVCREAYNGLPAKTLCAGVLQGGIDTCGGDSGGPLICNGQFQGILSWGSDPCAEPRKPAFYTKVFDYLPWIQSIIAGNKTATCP
Data set [3] concerns the target T2, batroxobin (recombinant SVSP). As to the kind of experiment: fluorescence bead binding assay; 2 mM Mg2+. Conditions: protein: recombinant; label: 6-FAM (Kd); HRP (ALISA).
Data set [4] addresses T1, ancrod (recombinant SVSP). As to the kind of experiment: fluorescence bead binding assay; 2 mM Mg2+; Kd: 50 mM Tris-HCl pH 7.5, 150 mM NaCl, 2 mM MgCl2, RT, 1 h, toxin on Sepharose beads; ALISA: 100 ng toxin coated, aptamer in nuclease-free water, RT, 2 h, PBST. The note with it: protein: recombinant; label: 6-FAM (Kd); HRP (ALISA).

Consider TAGCATGGGTGGTCAATTTAAGTACAGTGTCGTGCTCACT (ssDNA) [ancrod-7], for which the binding result in data set [1] is “binds”. Consider TAGTAACAGGTCTGCTTAGGCTTGCGAGGAGTACTAGTAT (ssDNA) [batroxobin-5], for which the binding result in data set [2] is “binds”. One may read the Kd as the constant that tells how readily two partners part at equilibrium. As for TGTCTGGTATGCAAAGGACTGCTGTACTGTTAGCTTTTGT (ssDNA) [batroxobin-26], the Kd in data set [3] turned out to be 4.7 nM. On to GGACCGACCCTTTAGCATTTATGACCCTTGTCATCGGGCT (ssDNA) [ancrod-55], for which the Kd in data set [4] amounted to 3 nM. Consider AGGTCCTATTGTATACAGGGAGCCCTCGGTCTTGCTGTGA (ssDNA) [batroxobin-29], for which the binding result in data set [2] is given as “binds”.

For the molecule TGGTCTAAGGACTGCTTAGGATTGCGATATGGTCCAGATG (ssDNA) [ancrod-11], in data set [1], the binding result is on record as “binds”.
